For data set [1], the system named is HeLa Kyoto. Nature of the data set: thermal stability score vs G1/S (z-score of summed log2 fold changes over temperatures); higher = more thermally stable than in G1/S.
The test system of data set [2] is HeLa Kyoto. Nature of the data set: solubility change mitosis vs G1/S (difference of NP-40 vs SDS log2 ratios) (log2 ratio difference); higher = more soluble in mitosis.
Data set [3] relates to HeLa Kyoto. Nature of the data set: solubility in G1/S (NP-40 vs SDS abundance) (log2 ratio); higher = more soluble. The conditions noted are these: cell cycle stage: G1/S.
[4] abbreviates: cell cycle stage: early G1 (4.5 h after nocodazole release).
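Wherever solubility change mitosis vs G1/S (difference of NP-40 vs SDS log2 ratios) is given: synchronized HeLa Kyoto cells (double thymidine block for G1/S, nocodazole release for mitosis), protein amounts in NP-40 versus SDS lysates quantified by mass spectrometry, three biological replicates.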
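Wherever solubility in G1/S (NP-40 vs SDS abundance) is given: HeLa Kyoto cells arrested at G1/S by double thymidine block, proteins quantified by TMT10plex mass spectrometry in mild NP-40 versus SDS extracts, three biological replicates.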
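Wherever thermal stability score vs G1/S (z-score of summed log2 fold changes over temperatures) is given: synchronized HeLa Kyoto cells, proteins quantified by TMT10plex mass spectrometry, three biological replicates, mitosis taken 0.5 h after nocodazole release, G1/S directly after double thymidine block.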

NOS1AP, sequence (chain, as listed by the source): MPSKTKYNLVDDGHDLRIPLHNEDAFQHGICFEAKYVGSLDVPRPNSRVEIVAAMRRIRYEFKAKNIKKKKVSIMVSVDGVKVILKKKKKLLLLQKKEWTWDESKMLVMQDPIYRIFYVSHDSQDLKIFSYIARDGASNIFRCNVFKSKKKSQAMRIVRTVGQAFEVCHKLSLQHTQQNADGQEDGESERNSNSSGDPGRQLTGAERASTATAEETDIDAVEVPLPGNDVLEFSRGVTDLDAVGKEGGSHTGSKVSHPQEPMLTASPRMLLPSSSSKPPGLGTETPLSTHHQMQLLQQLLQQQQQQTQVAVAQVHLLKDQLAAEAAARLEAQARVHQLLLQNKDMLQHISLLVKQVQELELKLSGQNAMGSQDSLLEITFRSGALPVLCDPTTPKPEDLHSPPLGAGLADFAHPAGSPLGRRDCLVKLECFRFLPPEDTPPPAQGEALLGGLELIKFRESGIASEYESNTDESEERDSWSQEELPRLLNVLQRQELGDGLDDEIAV

Turning to “MSSECDGGSKAVMNGLAPGSNGQDKATADPLRARSISAVKIIPVKTVKNASGLVLPTDMDLTKICTGKGAVTLRASSSYRETPSSSPASPQETRQHESKPGLEPEPSSADEWRLSSSADANGNAQPSSLAAKGYRSVHPNLPSDKSQDATSSSAAQPEVIVVPLYLVNTDRGQEGTARPPTPLGPLGCVPTIPATASAASPLTFPTLDDFIPPHLQRWPHHSQPARASGSFAPISQTPPSFSPPPPLVPPAPEDLRRVSEPDLTGAVSSTDSSPLLNEVSSSLIGTDSQAFPSVSKPSSAYPSTTIVNPTIVLLQHNREQQKRLSSLSDPVSERRVGEQDSAPTQEKPTSPGKAIEKRAKDDSRRVVKSTQDLSDVSMDEVGIPLRNTERSKDWYKTMFKQIHKLNRDTPEENPYFPTYKFPELPEIQQTSEEDNPYTPTYQFPASTPSPKSEDDDSDLYSPRYSFSEDTKSPLSVPRSKSEMSYIDGEKVVKRSATLPLPARSSSLKSSSERNDWEPPDKKVDTRKYRAEPKSIYEYQPGKSSVLTNEKMSRDISPEEIDLKNEPWYKFFSELEFGKPPPKKIWDYTPGDCSILPREDRKTNLDKDLSLCQTELEADLEKMETLNKAPSANVPQSSAISPTPEISSETPGYIYSSNFHAVKRESDGAPGDLTSLENERQIYKSVLEGGDIPLQGLSGLKRPSSSASTKDSESPRHFIPADYLESTEEFIRRRHDDKEKLLADQRRLKREQEEADIAARRHTGVIPTHHQFITNERFGDLLNIDDTAKRKSGSEMRPARAKFDFKAQTLKELPLQKGDIVYIYKQIDQNWYEGEHHGRVGIFPRTYIELLPPAEKAQPKKLTPVQVLEYGEAIAKFNFNGDTQVEMSFRKGERITLLRQVDENWYEGRIPGTSRQGIFPITYVDVIKRPLVKNPVDYMDLPFSSSPSRSATASPQFSSHSKLITPAPSSLPHSRRALSPEMHAVTSEWISLTVGVPGRRSLALTPPLPPLPEASIYNTDHLALSPRASPSLSLSLPHLSWSDRPTPRSVASPLALPSPHKTYSLAPTSQASLHMNGDGGVHTPSSGIHQDSFLQLPLGSSDSVISQLSDAFSSQSKRQPWREESGQYERKAERGAGERGPGGPKISKKSCLKPSDVVRCLSTEQRLSDLNTPEESRPGKPLGSAFPGSEAEQTERHRGGEQAGRKAARRGGSQQPQAQQRRVTPDRSQTSQDLFSYQALYSYIPQNDDELELRDGDIVDVMEKCDDGWFVGTSRRTKQFGTFPGNYVKPLYL [SORBS1]”, the thermal stability score in the data set on HeLa Kyoto [1] (setting [4]) is -0.134; in the data set with HeLa Kyoto [1] (cell cycle stage: mitosis), 4.08. The “solubility change mitosis (log2)” value with HeLa Kyoto [2] is 0.424. In the data set on HeLa Kyoto [3], the “solubility in G1/S (log2)” value is -0.0532.

For “MSWLFGVNKGPKGEGAGPPPPLPPAQPGAEGGGDRGLGDRPAPKDKWSNFDPTGLERAAKAARELEHSRYAKEALNLAQMQEQTLQLEQQSKLKEYEAAVEQLKSEQIRAQAEERRKTLSEETRQHQARAQYQDKLARQRYEDQLKQQQLLNEENLRKQEESVQKQEAMRRATVEREMELRHKNEMLRVETEARARAKAERENADIIREQIRLKASEHRQTVLESIRTAGTLFGEGFRAFVTDRDKVTATVAGLTLLAVGVYSAKNATAVTGRFIEARLGKPSLVRETSRITVLEALRHPIQVSRRLLSRPQDVLEGVVLSPSLEARVRDIAIATRNTKKNRGLYRHILLYGPPGTGKTLFAKKLALHSGMDYAIMTGGDVAPMGREGVTAMHKLFDWANTSRRGLLLFMDEADAFLRKRATEEISKDLRATLNAFLYHMGQHSNKFMLVLASNLPEQFDCAINSRIDVMVHFDLPQQEERERLVRLHFDNCVLKPATEGKRRLKLAQFDYGRKCSEVARLTEGMSGREIAQLAVSWQATAYASKDGVLTEAMMDACVQDAVQQYRQKMRWLKAEGPGRGVEHPLSGVQGETLTSWSLATDPSYPCLAGPCTFRICSWMGTGLCPGPLSPRMSCGGGRPFCPPGHPLL [ATAD3B]”, the thermal stability score with HeLa Kyoto [1] (setting [4]) was 0.595; in the data set with HeLa Kyoto [1] (cell cycle stage: mitosis) it was 0.439. In addition, in the data set with HeLa Kyoto [2], the “solubility change mitosis (log2)” value is -0.00813. In the data set on HeLa Kyoto [3], the “solubility in G1/S (log2)” value was -0.105.

As to “MVRGARQPQQPRSRLAPRLTGTVEKPPRKRRSRTEFALKEIMSSGGAEDDIPQGERKTVTDFCYLLDKSKQLFNGLRDLPQYGQKQWQSYFGRTFDVYTKLWKFQQQHRQVLDNRYGLKRWQIGEIASKIGQLYYHYYLRTSETSYLNEAFSFYSAIRQRSYYSQVNKEDRPELVVKKLRYYARFIVVCLLLNKMDVVKDLVKELSDEIEDYTHRFNTEDQVEWNLVLQEVAAFIEADPVMVLNDDNTIVITSNRLAETGAPLLEQGMIVGQLSLADALIIGNCNNQVKFSELTVDMFRMLQALEREPMNLASQMNKPGMQESADKPTRRENPHKYLLYKPTFSQLYTFLAASFKELPANSVLLIYLSATGVFPTGRSDSEGPYDFGGVLTNSNRDIINGDAIHKRNQSHKEMHCLHPGDLYPFTRKPLFIIVDSSNSVAYKNFTNLFGQPLVCLLSPTAYPKALQDQSQRGSLFTLFLNNPLMAFLFVSGLSSMRRGLWEKCQEYLRKINRDIAQLLTHSRSIDQAFLQFFGDEFLRLLLTRFIFCSATMRMHKIFRETRNYPESYPQLPRDETVENPHLQKHILELASILDVRNVFFENTIDDY [SCAI]”, the values for the thermal stability score in the data set on HeLa Kyoto [1] (setting [4]) and with HeLa Kyoto [1] (cell cycle stage: mitosis) were 0.148 and -0.274, respectively. In addition, in the data set on HeLa Kyoto [2], the “solubility change mitosis (log2)” value was -0.117. Also, the “solubility in G1/S (log2)” value in the data set on HeLa Kyoto [3] was -0.309.

As for NOS1AP, the results for the thermal stability score in the data set on HeLa Kyoto [1] (setting [4]) and with HeLa Kyoto [1] (cell cycle stage: mitosis) were 0.688 and 0.322, respectively. In addition, the “solubility change mitosis (log2)” value with HeLa Kyoto [2] is -0.0377. Besides, the “solubility in G1/S (log2)” value in the data set with HeLa Kyoto [3] was -0.0474.
